According to IntAct's records for PubMed 29892012:

B1: Histone-lysine N-methyltransferase SMYD1 (Homo sapiens), Q8NB12 (parent)
chain: MTIGRMENVEVFTAEGKGRGLKATKEFWAADIIFAERAYSAVVFDSLVNFVCHTCFKRQEKLHRCGQCKFAHYCDRTCQKDAWLNHKNECSAIKRYGKVPNENIRLAARIMWRVEREGTGLTEGCLVSVDDLQNHVEHFGEEEQKDLRVDVDTFLQYWPPQSQQFSMQYISHIFGVINCNGFTLSDQRGLQAVGVGIFPNLGLVNHDCWPNCTVIFNNGNHEAVKSMFHTQMRIELRALGKISEGEELTVSYIDFLNVSEERKRQLKKQYYFDCTCEHCQKKLKDDLFLGVKDNPKPSQEVVKEMIQFSKDTLEKIDKARSEGLYHEVVKLCRECLEKQEPVFADTNIYMLRMLSIVSEVLSYLQAFEEASFYARRMVDGYMKLYHPNNAQLGMAVMRAGLTNWHAGNIEVGHGMICKAYAILLVTHGPSHPITKDLEAMRVQTEMELRMFRQNEFMYYKMREAALNNQPMQVMAEPSNEPSPALFHKKQ
partner: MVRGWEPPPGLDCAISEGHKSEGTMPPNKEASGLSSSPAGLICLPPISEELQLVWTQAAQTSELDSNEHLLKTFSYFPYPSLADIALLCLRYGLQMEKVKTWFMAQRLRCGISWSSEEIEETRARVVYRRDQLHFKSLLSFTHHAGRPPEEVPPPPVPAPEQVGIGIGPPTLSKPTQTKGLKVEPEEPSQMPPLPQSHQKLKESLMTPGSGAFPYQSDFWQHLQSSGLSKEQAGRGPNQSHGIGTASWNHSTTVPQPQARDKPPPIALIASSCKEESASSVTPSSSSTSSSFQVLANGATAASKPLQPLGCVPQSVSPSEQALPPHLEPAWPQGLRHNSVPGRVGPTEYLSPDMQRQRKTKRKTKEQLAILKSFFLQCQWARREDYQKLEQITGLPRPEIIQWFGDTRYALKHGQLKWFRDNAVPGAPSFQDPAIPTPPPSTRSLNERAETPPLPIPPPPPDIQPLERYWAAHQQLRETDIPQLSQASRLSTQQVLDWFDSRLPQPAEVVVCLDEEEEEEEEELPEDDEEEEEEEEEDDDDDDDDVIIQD
B2: Acetylcholine receptor subunit gamma (Homo sapiens), P07510 (parent)
chain: MHGGQGPLLLLLLLAVCLGAQGRNQEERLLADLMQNYDPNLRPAERDSDVVNVSLKLTLTNLISLNEREEALTTNVWIEMQWCDYRLRWDPRDYEGLWVLRVPSTMVWRPDIVLENNVDGVFEVALYCNVLVSPDGCIYWLPPAIFRSACSISVTYFPFDWQNCSLIFQSQTYSTNEIDLQLSQEDGQTIEWIFIDPEAFTENGEWAIQHRPAKMLLDPAAPAQEAGHQKVVFYLLIQRKPLFYVINIIAPCVLISSVAILIHFLPAKAGGQKCTVAINVLLAQTVFLFLVAKKVPETSQAVPLISKYLTFLLVVTILIVVNAVVVLNVSLRSPHTHSMARGVRKVFLRLLPQLLRMHVRPLAPAAVQDTQSRLQNGSSGWSITTGEEVALCLPRSELLFQQWQRQGLVAAALEKLEKGPELGLSQFCGSLKQAAPAIQACVEACNLIACARHQQSHFDNGNEEWFLVGRVLDRVCFLAMLSLFICGTAGIFLMAHYNRVPALPFPGDPRPYLPSPD
partner: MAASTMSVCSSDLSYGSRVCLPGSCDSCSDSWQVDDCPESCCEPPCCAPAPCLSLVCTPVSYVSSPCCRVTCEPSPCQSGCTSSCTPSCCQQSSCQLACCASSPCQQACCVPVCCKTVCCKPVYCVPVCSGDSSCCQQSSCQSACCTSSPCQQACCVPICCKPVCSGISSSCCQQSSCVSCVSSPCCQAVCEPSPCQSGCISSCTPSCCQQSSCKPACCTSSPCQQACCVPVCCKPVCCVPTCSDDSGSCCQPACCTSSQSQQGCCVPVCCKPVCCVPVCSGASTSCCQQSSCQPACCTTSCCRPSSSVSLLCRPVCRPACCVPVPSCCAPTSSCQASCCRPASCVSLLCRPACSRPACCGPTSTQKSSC
B3: Abl interactor 2 (Homo sapiens), Q9NYB9 (parent)
chain: MAELQMLLEEEIPGGRRALFDSYTNLERVADYCENNYIQSADKQRALEETKAYTTQSLASVAYLINTLANNVLQMLDIQASQLRRMESSINHISQTVDIHKEKVARREIGILTTNKNTSRTHKIIAPANLERPVRYIRKPIDYTILDDIGHGVKWLLRFKVSTQNMKMGGLPRTTPPTQKPPSPPMSGKGTLGRHSPYRTLEPVRPPVVPNDYVPSPTRNMAPSQQSPVRTASVNQRNRTYSSSGSSGGSHPSSRSSSRENSGSGSVGVPIAVPTPSPPSVFPAPAGSAGTPPLPATSASAPAPLVPATVPSSTAPNAAAGGAPNLADGFTSPTPPVVSSTPPTGHPVQFYSMNRPASRHTPPTIGGSLPYRRPPSITSQTSLQNQMNGGPFYSQNPVSDTPPPPPPVEEPVFDESPPPPPPPEDYEEEEAAVVEYSDPYAEEDPPWAPRSYLEKVVAIYDYTKDKEDELSFQEGAIIYVIKKNDDGWYEGVMNGVTGLFPGNYVESIMHYSE
partner: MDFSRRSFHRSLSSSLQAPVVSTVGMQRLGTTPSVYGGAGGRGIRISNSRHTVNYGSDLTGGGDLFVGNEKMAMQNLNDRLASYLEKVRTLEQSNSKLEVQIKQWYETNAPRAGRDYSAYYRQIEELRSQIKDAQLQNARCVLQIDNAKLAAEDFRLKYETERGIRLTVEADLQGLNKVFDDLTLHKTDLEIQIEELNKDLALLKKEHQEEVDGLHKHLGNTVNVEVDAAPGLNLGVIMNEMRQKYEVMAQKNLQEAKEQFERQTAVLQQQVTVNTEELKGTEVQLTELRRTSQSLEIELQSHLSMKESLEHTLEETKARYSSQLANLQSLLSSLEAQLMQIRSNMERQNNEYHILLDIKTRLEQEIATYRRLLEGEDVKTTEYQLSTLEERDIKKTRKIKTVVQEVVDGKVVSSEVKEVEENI

Variants of: B1
Conditions: with homez_human HOMEZ

Variant	effect of a mutation on the interaction
MTIGRMENVEVFTAEGKGRGLKATKEFWAADIIFAERAYSAVVFDSLVNFVCHTCFKRQEKLHRCGQCKFAHYCDRTCQKDAWLNHKNECSAIKRYGKVPNENIRLAARIMWRVEREGTGLTEGCLVSVDDLQNHVEHFGEEEQKDLRVDVDTFLQYWPPQSQQFSMQYISHIFGVINCNGFTLSDQRGLQAVGVGIFPNLGLVNHDCWPNCTVIFNNGNHEAVKSMFHTQMRIELRALGKISEGEELTVSYIDFLNVSEERKRQLKKQYYFDCTCEHCQKKLKDDLFLGVKDNPKPSQEVVKEMIQFSKDTLEKIDKARSEGLYHEVVKLCRECLEKQEPVFADTNIYMLRMLSIVSEVLSYLQAFEEASFYARRMVDGYMKLYHPNNAQLGMAVMRAGLTNWHAGNIEVGHGMICKAYAILLVTHGPSHPITKDLEAMRVRTEMELRMFRQNEFMYYKMREAALNNQPMQVMAEPSNEPSPALFHKKQ [Q443R]	with no effect

Variants of: B2
Conditions: with kr107_human KRTAP10-7, P60409

Variant	effect of a mutation on the interaction
MHGGQGPLLLLLLLAVCLGAQGRNQEERLLADLMQNYDPNLRPAERDSDVVNVSLKLTLTNLISLNEREEALTTNVWIEMQWCDYRLRWDPRDYEGLWVLRVPSTMVWRPDIVLENNVDGVFEVALYCNVLVSPDGCIYWLPPAIFRSACSISVTYFPFDWQNCSLIFQSQTYSTNEIDLQLSQEDGQTIEWIFIDPEAFTENGEWAIQHRPAKMLLDPAAPAQEAGHQKVVFYLLIQRKPLFYVINIIAPCVLISSVAILIHFLPAKAGGQKCTVAINVLLAQTVFLFLVAKKVPETSQAVPLISKYLTFLLVVTILIVVNAVVVLNVSLRSPHTHSMARGVRKVFLRLLPQLLRMHVRPLAPAAVQDTQSRLQNGSSGWSITTGEEVALCLPRSELLFQQWQRQGLVAAALEKLEKGPELGLSQFCGSLKQAAPAIQACVEACNLTACARHQQSHFDNGNEEWFLVGRVLDRVCFLAMLSLFICGTAGIFLMAHYNRVPALPFPGDPRPYLPSPD [I448T]	with no effect

Variants of: B3
Conditions: with KRT20, P35900

Variant	effect of a mutation on the interaction
R373C	with no effect

Variants of: B3
Conditions: with KRT20, P35900
Remark: another data set of the same source

Variant	effect of a mutation on the interaction
E202K	with no effect
